Data as given in publication PMC11890025.

Test system: SaAREB6-His (Santalum album)
Assay: MST
Settings: MST: 20 nM labelled SaAREB6, 150 mM NaCl, 20 mM Tris-HCl pH 8.0, 25 C; EMSA: LightShift Chemiluminescent kit, buffer not stated

Row | Substance | Kd [µM]
1 | SaCYP736A167 promoter R1 (MST) | 4.81
2 | SaCYP736A167 promoter R2 (MST) | 24.8
